This is an account of results in paper PMC8170832.

This experiment has as its target endogenous HSF1 (heat shock factor 1), mouse embryonic fibroblasts (mouse (endogenous in MEFs)) (UniProt P38532). In words: co-IP.
Sequence of UniProt P38532 (P38532 whole entry): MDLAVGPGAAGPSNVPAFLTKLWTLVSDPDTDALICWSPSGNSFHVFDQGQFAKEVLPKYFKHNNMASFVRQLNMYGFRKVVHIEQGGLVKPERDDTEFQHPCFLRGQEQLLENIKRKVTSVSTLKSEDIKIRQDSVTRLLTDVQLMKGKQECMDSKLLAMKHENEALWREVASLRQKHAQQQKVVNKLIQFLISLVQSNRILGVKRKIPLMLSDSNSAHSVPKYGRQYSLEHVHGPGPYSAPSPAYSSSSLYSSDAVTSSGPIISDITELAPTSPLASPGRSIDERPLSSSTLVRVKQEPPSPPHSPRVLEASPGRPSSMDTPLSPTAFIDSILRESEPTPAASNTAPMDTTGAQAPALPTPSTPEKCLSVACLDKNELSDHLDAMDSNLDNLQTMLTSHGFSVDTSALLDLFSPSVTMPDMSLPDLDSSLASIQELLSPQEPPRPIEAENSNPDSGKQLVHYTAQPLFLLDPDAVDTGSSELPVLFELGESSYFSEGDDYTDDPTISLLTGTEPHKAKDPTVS

Substance “endogenous AMPK (AMP-activated protein kinase), mouse embryonic fibroblasts (from UniProt Q5EG47 1-559; Q9R078 1-270; Q91WG5 1-566) (complex)” yielded a percent of total cellular AMPKα depleted by IP of HSF1 of 66%.

“endogenous phospho-AMPKα (Thr172), mouse embryonic fibroblasts (from UniProt Q5EG47 1-559; Q9R078 1-270; Q91WG5 1-566) (complex)”: the percent of phospho-AMPKα depleted by IP of HSF1 came out at 25%.
